These results are taken from US20150203577A1 (Chugai, published 2015).

The target of assay [1] is T1, mouse FcγRIII extracellular domain with C-terminal His tag (mouse, UniProt P08508 31-215).
T1 construct: Made on the basis of NCBI NP-034318.2; also called mFcγRIII; mFcgRIII
T1 chain: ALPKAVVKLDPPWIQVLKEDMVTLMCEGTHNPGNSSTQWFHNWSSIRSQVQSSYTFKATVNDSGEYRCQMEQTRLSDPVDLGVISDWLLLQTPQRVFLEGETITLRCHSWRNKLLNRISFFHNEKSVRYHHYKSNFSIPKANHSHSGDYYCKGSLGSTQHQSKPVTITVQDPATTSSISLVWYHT
Put plainly: SPR Biacore T200. The protocol: (§1) Each altered antibody was analyzed for its interaction with each Fcγ receptor prepared above using Biacore T100 (GE Healthcare Japan Corp.), Biacore T200 (GE Healthcare Japan Corp.), Biacore A100, or Biacore 4000. The running buffer used was HBS-EP+ (GE Healthcare Japan Corp.). The assay temperature was set to 25° C. The sensor chips used were chips prepared by immobilizing Protein L (ACTIGEN or BioVision) onto Series S Sensor Chip CM5 (GE Healthcare Japan Corp.) or Series S Sensor Chip CM4 (GE Healthcare Japan Corp.) by the amine coupling method.
(§2) In order to calculate the KD value of each altered antibody for FcγR, kinetic analysis was conducted according to the following method: first, the antibody of interest was captured onto any of these chips and allowed to interact with mFcγR diluted with a running buffer. For the obtained sensorgram, the assay results were globally fit into the 1:1 Langmuir binding model using Biacore Evaluation Software to calculate an association rate constant ka (L/mol/s) and a dissociation rate constant kd (1/s). From these values, the dissociation constant KD (mol/L) was calculated.
Background: In SPR one partner is held on a chip, and binding of the other changes the refractive index at the surface.

Assay [2] addresses T2, mouse FcγRII extracellular domain with C-terminal His tag (mouse, UniProt P08101 30-210).
T2 construct: Made on the basis of NCBI NP-034317.1; also called mFcγRII; mFcgRII
T2 sequence: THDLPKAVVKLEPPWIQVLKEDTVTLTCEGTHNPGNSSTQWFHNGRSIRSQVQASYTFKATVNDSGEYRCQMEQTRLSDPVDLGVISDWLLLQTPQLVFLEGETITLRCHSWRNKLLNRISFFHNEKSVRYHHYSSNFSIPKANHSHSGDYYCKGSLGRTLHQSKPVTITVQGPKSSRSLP
Put plainly: SPR Biacore T200. The protocol:
as §1, §2

B1: H237-MB508/MRAL-k0 (antibody, mouse IgG1, kappa)
heavy: QVQLQESGPGLVKPSETLSLTCAVSGHSISHDHAWSWVRQPPGEGLEWIGFISYSGITNYNPSLQGRVTISRDNSKNTLYLQMNSLRAEDTAVYYCARSLARTTAMDYWGEGTLVTVSSAKTTPPSVYPLAPGSAAQTNSMVTLGCLVKGYFPEPVTVTWNSGSLSSGVHTFPAVLQSDLYTLSSSVTVPSSTWPSETVTCNVAHPASSTKVDKKIVPRDCGCKPCICEAYEVEMVFIFPPKPKDVLTITLTPKVTCVVVDISKDDPEVQFSWFVDDVEVHTAQTQPREEQFNSTFRSVSELPIMHQDWLNGKEFKCRVNSAAFPAPIEKTISKTKGRPKAPQVYTIPPPKEQMAKDKVSLTCMITDFFPEDITVEWQWNGQPAENYKNTQPIMDTDGSYFVYSKLNVQKSNWEAGNTFTCSVLHEGLHNHHTEKSLSHSPGK
light: not shown
notes: copies: 2 + 2
Take B1: the “relative mFcγRIII-binding activity (mIgG1 = 1)” value in assay [1] stood at 0.4. Besides, the “relative mFcγRII-binding activity (mIgG1 = 1)” value in assay [2] was determined as 5.5.

B2: H237-MB512/MRAL-k0 (antibody, mouse IgG1, kappa)
heavy: QVQLQESGPGLVKPSETLSLTCAVSGHSISHDHAWSWVRQPPGEGLEWIGFISYSGITNYNPSLQGRVTISRDNSKNTLYLQMNSLRAEDTAVYYCARSLARTTAMDYWGEGTLVTVSSAKTTPPSVYPLAPGSAAQTNSMVTLGCLVKGYFPEPVTVTWNSGSLSSGVHTFPAVLQSDLYTLSSSVTVPSSTWPSETVTCNVAHPASSTKVDKKIVPRDCGCKPCICEVYEVEMVFIFPPKPKDVLTITLTPKVTCVVVDISKDDPEVQFSWFVDDVEVHTAQTQPREEQFNSTFRSVSELPIMHQDWLNGKEFKCRVNSAAFPAPIEKTISKTKGRPKAPQVYTIPPPKEQMAKDKVSLTCMITDFFPEDITVEWQWNGQPAENYKNTQPIMDTDGSYFVYSKLNVQKSNWEAGNTFTCSVLHEGLHNHHTEKSLSHSPGK
light: not shown
notes: copies: 2 + 2
As to B2, the “relative mFcγRIII-binding activity (mIgG1 = 1)” value in assay [1] came to 0.3. The “relative mFcγRII-binding activity (mIgG1 = 1)” value in assay [2] was 3.5.

B3: H237-MB517/MRAL-k0 (antibody, mouse IgG1, kappa)
heavy: QVQLQESGPGLVKPSETLSLTCAVSGHSISHDHAWSWVRQPPGEGLEWIGFISYSGITNYNPSLQGRVTISRDNSKNTLYLQMNSLRAEDTAVYYCARSLARTTAMDYWGEGTLVTVSSAKTTPPSVYPLAPGSAAQTNSMVTLGCLVKGYFPEPVTVTWNSGSLSSGVHTFPAVLQSDLYTLSSSVTVPSSTWPSETVTCNVAHPASSTKVDKKIVPRDCGCKPCICEAYEVEWVFIFPPKPKDVLTITLTPKVTCVVVDISKDDPEVQFSWFVDDVEVHTAQTQPREEQFNSTFRSVSELPIMHQDWLNGKEFKCRVNSAAFPAPIEKTISKTKGRPKAPQVYTIPPPKEQMAKDKVSLTCMITDFFPEDITVEWQWNGQPAENYKNTQPIMDTDGSYFVYSKLNVQKSNWEAGNTFTCSVLHEGLHNHHTEKSLSHSPGK
light: not shown
notes: copies: 2 + 2
Regarding B3, in assay [1], the “relative mFcγRIII-binding activity (mIgG1 = 1)” value was found to be 0.4. The “relative mFcγRII-binding activity (mIgG1 = 1)” value in assay [2] is 1.2.

B4: H237-MB511/MRAL-k0 (antibody, mouse IgG1, kappa)
heavy: QVQLQESGPGLVKPSETLSLTCAVSGHSISHDHAWSWVRQPPGEGLEWIGFISYSGITNYNPSLQGRVTISRDNSKNTLYLQMNSLRAEDTAVYYCARSLARTTAMDYWGEGTLVTVSSAKTTPPSVYPLAPGSAAQTNSMVTLGCLVKGYFPEPVTVTWNSGSLSSGVHTFPAVLQSDLYTLSSSVTVPSSTWPSETVTCNVAHPASSTKVDKKIVPRDCGCKPCICETYEVEMVFIFPPKPKDVLTITLTPKVTCVVVDISKDDPEVQFSWFVDDVEVHTAQTQPREEQFNSTFRSVSELPIMHQDWLNGKEFKCRVNSAAFPAPIEKTISKTKGRPKAPQVYTIPPPKEQMAKDKVSLTCMITDFFPEDITVEWQWNGQPAENYKNTQPIMDTDGSYFVYSKLNVQKSNWEAGNTFTCSVLHEGLHNHHTEKSLSHSPGK
light: not shown
notes: copies: 2 + 2
B4: the “relative mFcγRIII-binding activity (mIgG1 = 1)” value in assay [1] was 0.6. In assay [2], the “relative mFcγRII-binding activity (mIgG1 = 1)” value was determined as 8.3.

B5: H237-MB510/MRAL-k0 (antibody, mouse IgG1, kappa)
heavy: QVQLQESGPGLVKPSETLSLTCAVSGHSISHDHAWSWVRQPPGEGLEWIGFISYSGITNYNPSLQGRVTISRDNSKNTLYLQMNSLRAEDTAVYYCARSLARTTAMDYWGEGTLVTVSSAKTTPPSVYPLAPGSAAQTNSMVTLGCLVKGYFPEPVTVTWNSGSLSSGVHTFPAVLQSDLYTLSSSVTVPSSTWPSETVTCNVAHPASSTKVDKKIVPRDCGCKPCICENYEVEMVFIFPPKPKDVLTITLTPKVTCVVVDISKDDPEVQFSWFVDDVEVHTAQTQPREEQFNSTFRSVSELPIMHQDWLNGKEFKCRVNSAAFPAPIEKTISKTKGRPKAPQVYTIPPPKEQMAKDKVSLTCMITDFFPEDITVEWQWNGQPAENYKNTQPIMDTDGSYFVYSKLNVQKSNWEAGNTFTCSVLHEGLHNHHTEKSLSHSPGK
light: not shown
notes: copies: 2 + 2
Take B5: the “relative mFcγRIII-binding activity (mIgG1 = 1)” value in assay [1] was found to be 0.6. Further, the “relative mFcγRII-binding activity (mIgG1 = 1)” value in assay [2] came out at 6.5.

B6: H237-MB509/MRAL-k0 (antibody, mouse IgG1, kappa)
heavy: QVQLQESGPGLVKPSETLSLTCAVSGHSISHDHAWSWVRQPPGEGLEWIGFISYSGITNYNPSLQGRVTISRDNSKNTLYLQMNSLRAEDTAVYYCARSLARTTAMDYWGEGTLVTVSSAKTTPPSVYPLAPGSAAQTNSMVTLGCLVKGYFPEPVTVTWNSGSLSSGVHTFPAVLQSDLYTLSSSVTVPSSTWPSETVTCNVAHPASSTKVDKKIVPRDCGCKPCICEDYEVEMVFIFPPKPKDVLTITLTPKVTCVVVDISKDDPEVQFSWFVDDVEVHTAQTQPREEQFNSTFRSVSELPIMHQDWLNGKEFKCRVNSAAFPAPIEKTISKTKGRPKAPQVYTIPPPKEQMAKDKVSLTCMITDFFPEDITVEWQWNGQPAENYKNTQPIMDTDGSYFVYSKLNVQKSNWEAGNTFTCSVLHEGLHNHHTEKSLSHSPGK
light: not shown
notes: copies: 2 + 2
B6: the “relative mFcγRIII-binding activity (mIgG1 = 1)” value in assay [1] came to 0.6. The “relative mFcγRII-binding activity (mIgG1 = 1)” value in assay [2] is 10.7.

B7: H237-MB514/MRAL-k0 (antibody, mouse IgG1, kappa)
heavy: QVQLQESGPGLVKPSETLSLTCAVSGHSISHDHAWSWVRQPPGEGLEWIGFISYSGITNYNPSLQGRVTISRDNSKNTLYLQMNSLRAEDTAVYYCARSLARTTAMDYWGEGTLVTVSSAKTTPPSVYPLAPGSAAQTNSMVTLGCLVKGYFPEPVTVTWNSGSLSSGVHTFPAVLQSDLYTLSSSVTVPSSTWPSETVTCNVAHPASSTKVDKKIVPRDCGCKPCICIPAEVEMVFIFPPKPKDVLTITLTPKVTCVVVDISKDDPEVQFSWFVDDVEVHTAQTQPREEQFNSTFRSVSELPIMHQDWLNGKEFKCRVNSAAFPAPIEKTISKTKGRPKAPQVYTIPPPKEQMAKDKVSLTCMITDFFPEDITVEWQWNGQPAENYKNTQPIMDTDGSYFVYSKLNVQKSNWEAGNTFTCSVLHEGLHNHHTEKSLSHSPGK
light: not shown
notes: copies: 2 + 2
Consider B7, for which the “relative mFcγRIII-binding activity (mIgG1 = 1)” value in assay [1] stood at 0.2. In addition, the “relative mFcγRII-binding activity (mIgG1 = 1)” value in assay [2] came to 4.5.

B8: H237-MB518/MRAL-k0 (antibody, mouse IgG1, kappa)
heavy: QVQLQESGPGLVKPSETLSLTCAVSGHSISHDHAWSWVRQPPGEGLEWIGFISYSGITNYNPSLQGRVTISRDNSKNTLYLQMNSLRAEDTAVYYCARSLARTTAMDYWGEGTLVTVSSAKTTPPSVYPLAPGSAAQTNSMVTLGCLVKGYFPEPVTVTWNSGSLSSGVHTFPAVLQSDLYTLSSSVTVPSSTWPSETVTCNVAHPASSTKVDKKIVPRDCGCKPCICEDYEVEWVFIFPPKPKDVLTITLTPKVTCVVVDISKDDPEVQFSWFVDDVEVHTAQTQPREEQFNSTFRSVSELPIMHQDWLNGKEFKCRVNSAAFPAPIEKTISKTKGRPKAPQVYTIPPPKEQMAKDKVSLTCMITDFFPEDITVEWQWNGQPAENYKNTQPIMDTDGSYFVYSKLNVQKSNWEAGNTFTCSVLHEGLHNHHTEKSLSHSPGK
light: not shown
notes: copies: 2 + 2
On to B8, for which, in assay [1], the “relative mFcγRIII-binding activity (mIgG1 = 1)” value amounted to 0.4. Also, the “relative mFcγRII-binding activity (mIgG1 = 1)” value in assay [2] stood at 1.2.

B9: H237-MB516/MRAL-k0 (antibody, mouse IgG1, kappa)
heavy: QVQLQESGPGLVKPSETLSLTCAVSGHSISHDHAWSWVRQPPGEGLEWIGFISYSGITNYNPSLQGRVTISRDNSKNTLYLQMNSLRAEDTAVYYCARSLARTTAMDYWGEGTLVTVSSAKTTPPSVYPLAPGSAAQTNSMVTLGCLVKGYFPEPVTVTWNSGSLSSGVHTFPAVLQSDLYTLSSSVTVPSSTWPSETVTCNVAHPASSTKVDKKIVPRDCGCKPCICQPNEVEMVFIFPPKPKDVLTITLTPKVTCVVVDISKDDPEVQFSWFVDDVEVHTAQTQPREEQFNSTFRSVSELPIMHQDWLNGKEFKCRVNSAAFPAPIEKTISKTKGRPKAPQVYTIPPPKEQMAKDKVSLTCMITDFFPEDITVEWQWNGQPAENYKNTQPIMDTDGSYFVYSKLNVQKSNWEAGNTFTCSVLHEGLHNHHTEKSLSHSPGK
light: not shown
notes: copies: 2 + 2
For B9, in assay [1], the “relative mFcγRIII-binding activity (mIgG1 = 1)” value was 1.6. For the same molecule, the “relative mFcγRII-binding activity (mIgG1 = 1)” value in assay [2] came to 38.6.

B10: H237-MB520/MRAL-k0 (antibody)
heavy: QVQLQESGPGLVKPSETLSLTCAVSGHSISHDHAWSWVRQPPGEGLEWIGFISYSGITNYNPSLQGRVTISRDNSKNTLYLQMNSLRAEDTAVYYCARSLARTTAMDYWGEGTLVTVSSAKTTPPSVYPLAPGSAAQTNSMVTLGCLVKGYFPEPVTVTWNSGSLSSGVHTFPAVLQSDLYTLSSSVTVPSSTWPSETVTCNVAHPASSTKVDKKIVPRDCGCKPCICETYEVEWVFIFPPKPKDVLTITLTPKVTCVVVDISKDDPEVQFSWFVDDVEVHTAQTQPREEQFNSTFRSVSELPIMHQDWLNGKEFKCRVNSAAFPAPIEKTISKTKGRPKAPQVYTIPPPKEQMAKDKVSLTCMITDFFPEDITVEWQWNGQPAENYKNTQPIMDTDGSYFVYSKLNVQKSNWEAGNTFTCSVLHEGLHNHHTEKSLSHSPGK
light: not shown
notes: copies: 2 + 2
In the case of B10, in assay [1], the “relative mFcγRIII-binding activity (mIgG1 = 1)” value was 1.3. Also, the “relative mFcγRII-binding activity (mIgG1 = 1)” value in assay [2] is 1.8.
